Results as given in a protein production outcome set (Wang et al. 2014).

Experiment: label from the status in PepcDB records

Sequence	protein production
MKPILALLSLLALPVMAAEPTLYGRYENIKVLEIGQTFKAKMDTGALTASLSAKDIELFQRDGDDWVRFRLATKGADDKVYEHKVSRISKIKGRAEGDDEDDEGINPAKRPVVDLELCLGNKKRTVEVNLVDRSHFNFPLLIGAKALREFGAAINPARRYTADEPDC	not failed
MVLDVFIEVSLVIFVAFLISLVMRMLKQPLIIGYILTGILVSPYFLNIVRFEESISTLGHYGVTILLFMVGISLNPGYFKEIGKISVITGLGQIVFTFSIGFLISIFLGYSYIESMYISIALTFSSTIIIMKLISDKGDIDKLYGKISIGFLIVQDIVAMAILILISAFNVQSGAGELLFLLLSKIVLILTAIYIFTKYALSNFISYASKNQEFLFLFSLMWCFTLASIFHLLGFSSEIGALIAGIVLAMFPERYEIASKVRPLRDFFLILFFVVLGVQMTFETSGSFLIPAIILSIFVLFGNPIIVMILMGAFGYTKKTGFLAGLTVAQISEFSLIIASLGLRNGHLSQGIVSMITLIGIITIAGSSYFITYSEKIYSLLSNYLSIFEKKTKMSEKDFKNKNTGEIILFGADRTGKNILNVIENSKERFLIIDYNPKIIKDLSKRGYNSIYGDASNLELLNELNFKESKMLISTISDIETDILLIKTILKSNKNAIIIVIAHKIEDAIKLYEEGASYVIMPHFLGSIHASLMIQKYGLNIEEFLKEKSNHMESLKKSQELFRHTK	failed
MAEGKDRNFVTALARGLDVLRSFRPGEVLLTNTDLSERTGLPKPTVSRLTYTLCQLGYLVQDRQSGAYRLGVGVLQLGMGVLAGLDICDRAAEVLRGLRTGANPYITAALGEVHRAEVIYVAVSRSRENVSLSMHVGSRLPLFRSAIGRAILVGMEAEEREAAIAAGMRDLGVPEAELRSQIARAVEEYAVRGYCTGYGDWRADVNGIAVPVLSLGGARLHGLNLGGPSFHVTQEELERVFAPLLIEAGRSLGMVP	failed
MKLVTYNIQYGIGLDGQYDVARIADAVRGADVVALQEVTRNNPRNGGRDMVAEIGEALPDYFAVYGSNFEANIGSRIENGRAITTTFQLGNMMLSKTPIHLSRNLLLPRSRSFEMMNFQRGALEALIETPLGFIRFYSIHLDHRSPVERASQIQFLRRRLLNYALEGGALSGVAEIGLPELPHPEAFVAMGDFNMLAGSPEYVELAGRPDHQFGMPLTADFAVDAAVRLNVTGDDLASWVDPKDPANTSRHKRIDYVFTSASPARSLQHLWVDHQATGSDHLPVWAELG	failed
MKNFLMKKIIYSGVLSIHFILAFVVNSVGAAQLKKSSTLSMNVLFITIDDLNNDLGAYGHHLVKSPNIDALAKKGIRFDKAYSQSPMCTPSRSSFMTGLYPDQTGIIAHGSHTQMTAHFREHIPKVTTLPQLFKNNGYFSGRVGKIYHQGVPNQIGTSGADDAASWHETVNPIGLDKDVEDKIIAFNEKALVRQSFGGVLSFLAIGDDDKAHTDGKVATETINMIKDHHPDKTGKPFFIGAGFYRPHTPFVAPKKYFDLYPLEKIKPYIAPKNDRKDIPDIALQDREGQVGLTLNQRKQIIQGYYAAVSYVDAQVGRVLDALKQQDLSDNTIVVFLSDHGYELGQHGLWQKGSLFEGSARAPLIIYAPNVKDNGRVVTSPVELVDIYPTLAKLTGLVAPEYLAGKDLTPALNDVDFQVRKGAYSAILNRNKGDNNQFAFTKIRGHSIRTNRYRYTEWGEGYFGAELYDHKNDPQELKNLADKVSLESVRIKMKWLLNDAMDDAQKRIKSIE	failed
MNVDFINPFLDSLLNVLKTMANMELKPGKPNLKKDNLAKGDVSGLIGMVGPQTKGSLSITFEETLILEIMNKMLGEKPESIDEEVTDLVGELTNMVTGGAKNLLSDKGYEFDMATPIVVSGKNHTIAHKSDGQKIIMPFSSIYGTAYIEICFEG	not failed
MFRKVLFPTDFSEGAYRAVEVFEKRNKMEVGEVILLHVIDEGTLEELMDGYSFFYDNAEIELKDIKEKLKEEASRKLQEKAEEVKRAFRAKNVRTIIRFGIPWDEIVKVAEEENVSLIILPSRGKLSLSHEFLGSTVMRVLRKTKKPVLIIKEVDENELAKTKGTSG	not failed
METRAHHVLIGLFSVIVIGAALLFGLWLAKSGSEGKFNYYDIVFNEAVSGLSQGSSVQYSGIKVGDVAFLRLDPKDPRKVWARIRVVASAPIKQDTTAKLALTGITGTSIIQLSSGTPASPMLEGKDGKIPVIVATPSPLTQLLSNGEDLMGNINQLIARFSNLLSEENTARISRTLDHLDQATGALSAERENVSAVMQQLAQASRQANAALAQASELMRSANGLLNEQGKGMLENANKTMASLERTSATLDQLISENRHSLDGGIQGLAELGPAVSELRDTLAALRGISRRLEENPANYLLGREKTKEFTP	failed
LETSWIKPGQASWEWWNDAAPYGPDVNFVSGYNLETYKYYIDFASKYGIRYIIMDEGWAKSTRDPYTPNAKVDVHELIRYAEKKNVGIVLWLTWLTVENNMDLFKTFSEWGVKGVKIDFMDRSDQWMMNFYERVAAEAAKYKLFVDFHGSVSPKGLEYKYPNVLSYEGVRGMEQMGGATPDNSIFMPFMRNAVGAMD	not failed
MNKRNWTAYYNSTKQNTLPRKSLLKAIANFDKEKINLSKSAIDLGCGAGIDVMELLRCGWSVIAIDSQLSAIDSLLSSAQELTCANKLKTIISSFEALDSLPKVNLINASFSLPFLKPVYFYKFWSVILKGLKPGGRFSGSFFGFNDFWNTRTDMTFLNREMICHLFSQFKIEYFQEEEKDEMDALGYYKHWHKFFIVAKKIALEHHHHHH	failed
MSLKEFKIGWFATILGTGGVAIASLPYFPVLSVVLTYLLTAIFVILTAVWLAKIIRYPRVVAAELGHFVMGNFYPLQPISAVILAILYRKLGIPLDLPLLAYGAGLILVLTVYLSYHFFANVKAEIHHIHGGWFIPPVSTILVTDALLQYSPNETFFVTSLIYFGIGLMLFLFISTILFLRLVNHELPVFELAPTNFILLAPIGILIVDFTLIAKHAEAIFSANLVPLALIASISLWGFGLWALAVNILLLLRYLRQEMPFFLGWWSYVFPTAAYTLSTIALSHFVPVFSYAATALYAFLIAAWAIIGVRTVGIAIRGA	failed
MKITLEHWFYNWLFEYRIKDLKPKSFERYESIYRNYIKDTDLGNVKLKYLRVSHIQKYYNRLLDSNKSIPTIRQINTKLKTCLSEAEKQGLIQRNYCTMVNIPLEHHHHHH	not failed
MAEQKNHNNELNVEDALTQSEAFLVKNKKAIIGAVVAVIVIVAGAILYKNFYAEPREEKAQAALFKSEQYFEQSAYEQALNGDSIGSIGFLKVADQFSGTKAANLAKAYAGICYQNLGKYEEAIKALDGFSGDDQMVAPAIQGAIGNCYAQLGQLDKATSALLKAADHADNSTLSPIFLLQAGEILMKQGKNEEAVKAFTKIKDKYFQSYQAMDIDKYIEQAKLLKK	failed
QSYSGGIRLDTLFIDEGFGSLDPESLDLAIQTLVDLQQTGRMIGVISHVSELKEQMALRIDVEPSRFGSTVSVKSQMLISK	failed
KRFESPSVIKPNTLTNQQLIETCDQLIENAVKHHLVADVPVGLYLSGGIDSTLLLSKIRKLGHLNFPTFTIANSSREQAFGTRDFEFARLASKLYNSDHHEVSVHAEMLQDLPAFVSMIDQPIGDSALFLTHILSKEAGQHVRVALNGAGADELFAGYNRHSAYKSYLNNLLHKNLAITLIKSTYNILPDGGNHSLKKVFRLWNKFTGMMDVDPIKTCHNFSSSEYFIEKNTSIEVDDKSYEDLSYYLYYCLRNDRTKYLISDILALTDKMTMRSSIEARVPYLDQELRRFVESLDPSVLLKNGRKWILKEVLLRNGGETFLNRPKEGFGMPFGYWLKLPVNKNFVEKLTNKNHPIYEWVPYQTIKNLVDWHLGSKRDCSSELWSVLLLMHWYEKE	failed
MVVANDLSSKILPRVLIVSRRTLRKNKYVDFVGEYHLDLIVSSGAVPVIVPRVNGIHSMLQSFEPIHGVLLCEGEDVDPSLYADDELSDLSPEDMEEIKKAHAEDMTIDREKDSIELTLARLCLERNIPFLGICRGSQILNVAAGGTLYQDIDKELGTTMTTTNHIDYDNYDGHRHEARIVEETPLHKLFEEMEIMVNSYHHQGVKRLAQRFVPMAYAPDGLIEGFYDPNRYDPKEGQFLMGLQFHPERMRLPGSDEFDYPGCALVYQEFVKAVIAFQKKQVNATQVEMKRKTTTLVKSFSQAEFLEVRDSFVLHTYRLYVLPLNIGFSDMAE	failed
MQDIVRKTIDNLNRNHMAGYYTQSIQQLHELLYRLMPEGQTVGCGDSVTLEQSGVYEYVRNHSYNFLDKYRTGLNREEKREIYLQNFRADTFLTGINAVTIDGKLFNIDGNGSRVAPIIYGPKQVIAVVGTNKIVKSVDDAIWRTRQIAAPLDARRLAKETPCVKLAKCIDCHHSQRICNDFVLITGQFEKGRIKVIFIEGDYGY	failed
MTGSCLCQGIRYEISGHGLGDIIECHCQRCRKANGTAYATNTPVHVDDFKIVQGEHLLKKYQSTPTTQRCFCSECGSPIMSIKTDTPEYYRLRIGTLDTKIEQKPSMHIFAAHKAEWDTITDDLPQYAERP	failed
MNEKIVREQRGGEDSPSSVSAKSATAAASASTASMTFASAALESHKTTTITTASSSPRTSGASASASSSSRSASAPASSSSQQEKQPMLNATDMRELREIKQLLWGDNVREDVFKRWSQGFEFSKVEPSALVQKQGGPCAVIAPVQAYLLKIIIMDLPGIKLSEISLDKSQNLLIQALCDILKNCRAPRYRIVHLLRRRGNATEAGSTKKRSPAGEEESALAGQAAGSSEEVEEAAEATPASVSKLSQALQLEHDMHQELSPDEFHERLHTLHFKNIAAVARYYMENYDQLAHTYGVLLFMYSVFLTKGLELVAADISDTSEPLIHSTYGYGGQSLINLMLTGRAVAHVWDNEQDVGGLKLRGICEQSDIGFITLMEEMRYCTVGSFFKNPRYPVWVMGSDTHLTVLFSNEKRLVSPETPSETGRRIFKSYDPEGNNFISTTMLREVLIALNLVSEPAYVALMQKRLDPENLGIILLNAFMDEFFPLESRSTPDTFELMHYNGIPGSNENNKVRYYCGTAILLEGDLKSVCTSNPMVTCLQTKWPNIEINWHDGHMPSLN	failed
MEHTWMMKYFAEFFGTIILVVFGNGAVANSVLTKTGGNSHDGQANGGWLLIAFSFGFGVMLPAMMFGSISGNHLNPAVTLAQACAGAFPWNQVLPYILVQMLGAIVGQLLLVAVYWPFIAKTSSDDAVFASFSTGDIADSKLNGFITEFVGTAILLFVAVGLYRGMFFKQSEDIANIGVGFLITALVMAVGGPTGPALNPARDLGPRIVYALCPLPHKGSAHWDYGWIPVVAPIAGGICGALLYKLAFGL	failed
MGACVCRMNPDNETMSVSSASISRPASAGIAMGAARKNRPLCHETIRWRSDVPLTEGQLRSKRDEFWDTAPAFDGRKEIWDALRAATTAAEGLDFQMAQAILDGANVSVPNGYLTECYDELGTQYKVPIYCLSYPINIVKEENGRDSPAEYSEPVDGGTDIFLKLRISSTMTDVKLPVYSKDTVGQCKKKLQAAEGVDACCQRWFYSGKLLGDKVPIDECSIHQGYVVQVIVNTEHYNHDNSTSTAHAS	failed
MSKKQKPTGNTGRKNQIKGKYAERSRKNGFGKFCLILQVIMSAAFMGVLVLLDMLPLKYLALAALILFFLWCITFTTQAVRKKKGVTGKVYSILLIAVLAVGTYYIAKTNDMIAAITSGGSKVDKMVVAVLKDDPAETLEDASDYEFGVQFNTGAENMKAAVMDIQDQIGDISTTEYKSVQEQAEALISGEVDAIIYNQSYTELMENAVEGYNDQIRIIYKHEIETKFDFGGSAKDDSLTKKPFTVYISGIDTYGDDADDDRDSIRSDVNIIAVVNPTTHQILLITTPRDYYIPIPGISDGMNDKLTHAGTYGIDVSMETLGALYETDINYYVRLNFSSLIEIVDILGGVDVYSEYAFTTGWESGYEMEVQQGINHFDGKQALAFSRERHALEGGDNQRGKNQQAVITAMLKKVLSPTMLLKANSIINQVSQDVETNISQGQLNSLVKSQLKSGAKWTIQSVAASGTDGEDYCYSVPDMPLYVLYPDEEVVNSIVELANIVEEGGSLESGEALN	failed
